This test has as its target RBD-HR/trimer (SARS-CoV-2) (UniProt P0DTC2). Nature of the test: SEC. (In general: Size exclusion chromatography separates by hydrodynamic size, large species first.)

The term stoichiometry N denotes a count of units in the complex or per binding partner.

RBD-HR/trimer (from UniProt P0DTC2) showed a stoichiometry N of 3.
